Data: patent publication JP2008278814A (dated 2008)

What was measured:
[1] = biological target: T1, ヒトGITR(glucocorticoid-induced tumor necrosis factor receptor-family related gene) (human, UniProt Q9Y5U5 26-241); assay: cell ELISA and flow cytometry of hybridoma supernatant on 293T/GITR cells
T1 construct: whole, on cells; also called TNFRSF18
T1 sequence (looked up): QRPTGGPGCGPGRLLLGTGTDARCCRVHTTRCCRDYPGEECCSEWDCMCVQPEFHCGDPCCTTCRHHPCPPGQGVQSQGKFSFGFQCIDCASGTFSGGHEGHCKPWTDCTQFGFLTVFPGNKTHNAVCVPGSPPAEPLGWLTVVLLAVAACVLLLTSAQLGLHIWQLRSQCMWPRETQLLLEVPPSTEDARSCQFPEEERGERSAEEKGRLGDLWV

[2] = biological target: T2, GITR断片(アミノ酸翻訳部分N末端1-65番目)−HIDE1の膜貫通領域−mycタグ (human, UniProt Q9Y5U5 26-65); assay: immunoprecipitation from 293T lysate, Western blot with HRP-labelled anti-myc antibody
T2 construct: domain: 膜貫通領域; Includes the signal peptide as encoded; no cleavage site stated; also called N末端1-65番目のGITR断片; not shown: HIDE1 transmembrane region; myc tag
T2 chain: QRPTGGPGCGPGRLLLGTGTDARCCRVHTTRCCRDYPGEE

[3] = biological target: T3, GITR断片(アミノ酸翻訳部分N末端1-72番目)−HIDE1の膜貫通領域−mycタグ (human, UniProt Q9Y5U5 26-72); assay: as above
T3 construct: domain: 膜貫通領域; also called N末端1-72番目のGITR断片; not shown: HIDE1 transmembrane region; myc tag
T3 chain: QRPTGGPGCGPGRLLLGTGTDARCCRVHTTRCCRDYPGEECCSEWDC

[4] = biological target: T4, GITR断片(アミノ酸翻訳部分N末端1-60番目)−HIDE1の膜貫通領域−mycタグ (human); assay: as above
T4 construct: domain: 膜貫通領域; Includes the signal peptide as encoded; no cleavage site stated; also called GITRの1-180塩基長; N末端1-60番目のGITR断片; not shown: HIDE1 transmembrane region; myc tag
T4 chain: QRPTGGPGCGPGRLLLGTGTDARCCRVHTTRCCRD

binding result [2]: binds
binding result [3]: binds
binding result [4]: binds
B1: 抗ヒトGITRモノクローナル抗体(40-44抗体) (antibody, V domains shown)
VH: QVQLQQSGAELVRPGTSVKVSCKASGYAFSNYLIEWVKQRPGQGLEWIGVINPGSGSTNYNEKFKGKATLTADKSSSTAYMQLSSLTSDDSAVYFCARRTYYYGSNYYAMDYWGQGTSVTVSS
VL: DIQMNQSPSSLSSSLGDTITITCHASQNINVWLSWYQQKPGNIPKLLIYKASNLHTGVPSRFSGSGSGTGFTLTISSLQPEDIATYYCQQGQSYPFTFGSGTKLEIK
notes: Mouse (Balb/c) hybridoma monoclonal antibody; mouse IgG2A and mouse IgG1 were used as controls in different experiments; also called 抗ヒトGITR抗体
binding result [1]: binds
